Assay results taken from article PMC8268110.
“And” between values parts separate entries of the source, which are not always exact repeats. Identical values can stand only once.

Assays:
[1] = biological target: Nrl1 (full length), BACTH fusion (S. pombe) (UniProt O42975); assay: two-hybrid; bacterial two-hybrid (BACTH) in E. coli BTH101; full-length ORFs in pUT18C and pKT25, both combinations; X-gal/IPTG plates and β-galactosidase activity assay at 28 °C in Miller units; eight biological replicates
[2] = biological target: Nrl1 (full length), BACTH fusion (S. pombe) (UniProt O42975); assay: two-hybrid; bacterial two-hybrid (BACTH) in E. coli BTH101; Nrl1 or its truncations in pUT18C, RNA-processing factors in pKT25; β-galactosidase activity assay at 28 °C in Miller units; eight biological replicates
[3] = biological target: Nrl1(C-term), C-terminal region (493–972 aa), BACTH fusion (S. pombe) (UniProt O42975); assay: as above
[4] = biological target: Nrl1(N-term), N-terminal region (1–159 aa), BACTH fusion (S. pombe) (UniProt O42975); assay: as above
[5] = biological target: Nrl1(N-term + NRDE-2), N-terminus with NRDE2 domain (1–492 aa), BACTH fusion (S. pombe) (UniProt O42975); assay: as above

β-galactosidase activity (Miller units) [1] | β-galactosidase activity (Miller units) [2] [Miller units] | β-galactosidase activity (Miller units) [3] [Miller units] | β-galactosidase activity (Miller units) [4] [Miller units] | β-galactosidase activity (Miller units) [5] [Miller units] | Substance
977 Miller units and 1090 Miller units | 1080 | 708 | – | – | Ctr1, BACTH fusion (natural protein)
1440 Miller units and 1450 Miller units | 1460 | – | 1510 | 1560 | Mtl1, BACTH fusion (natural protein)
739 Miller units and 467 Miller units | 583 | 495 | – | – | Ntr2, BACTH fusion (natural protein)
